Data published in patent US20240309103A1 (Regeneron, published 2024).

Experiments:
[1] = molecular target: T1, monkey NPR1 extracellular domain expressed with a C-terminal myc-myc-hexahistidine (mfNPR1-MMH) (monkey, UniProt P16066 33-473 (human entry)); test: SPR, mAb captured, 25 C
T1 construct: also called monomeric monkey NPR1
T1 chain: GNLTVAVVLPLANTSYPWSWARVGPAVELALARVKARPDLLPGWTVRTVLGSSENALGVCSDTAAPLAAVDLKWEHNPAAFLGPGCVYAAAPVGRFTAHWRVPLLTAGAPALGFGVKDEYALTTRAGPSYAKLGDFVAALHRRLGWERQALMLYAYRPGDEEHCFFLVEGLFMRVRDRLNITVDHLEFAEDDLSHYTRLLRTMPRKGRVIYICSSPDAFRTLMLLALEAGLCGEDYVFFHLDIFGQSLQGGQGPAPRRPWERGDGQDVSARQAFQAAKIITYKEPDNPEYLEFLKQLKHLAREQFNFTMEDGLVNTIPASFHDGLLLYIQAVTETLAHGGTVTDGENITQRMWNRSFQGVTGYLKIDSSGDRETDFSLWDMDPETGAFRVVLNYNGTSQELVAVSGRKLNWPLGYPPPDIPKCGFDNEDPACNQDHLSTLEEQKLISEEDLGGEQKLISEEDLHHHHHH
Procedure, shortened: (§1)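 First, a CM5 chip is amine-derivatized with anti-human Fc antibody. Next, anti-NPR1 mAbs are captured on it. Then NPR1 reagents are passed over in HBS-ET pH 7.4 running buffer, and KD is derived from real-time SPR sensorgrams.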

[2] = molecular target: T2, human NPR1 extracellular domain expressed with a C-terminal myc-myc-hexahistidine (hNPR1-MMH) (human, UniProt P16066 33-473); test: SPR, mAb captured, 25 C
T2 construct: also called hNPR.mmh; monomeric human NPR1
Procedure, shortened: as §1

[3] = molecular target: T3, human NPR1 extracellular domain expressed with a C-terminal mouse IgG2a (hNPR1-mFc) (human); test: SPR, mAb captured, 25 C
T3 construct: also called hNPR1-Fc; human NPR1 dimer
T3 chain: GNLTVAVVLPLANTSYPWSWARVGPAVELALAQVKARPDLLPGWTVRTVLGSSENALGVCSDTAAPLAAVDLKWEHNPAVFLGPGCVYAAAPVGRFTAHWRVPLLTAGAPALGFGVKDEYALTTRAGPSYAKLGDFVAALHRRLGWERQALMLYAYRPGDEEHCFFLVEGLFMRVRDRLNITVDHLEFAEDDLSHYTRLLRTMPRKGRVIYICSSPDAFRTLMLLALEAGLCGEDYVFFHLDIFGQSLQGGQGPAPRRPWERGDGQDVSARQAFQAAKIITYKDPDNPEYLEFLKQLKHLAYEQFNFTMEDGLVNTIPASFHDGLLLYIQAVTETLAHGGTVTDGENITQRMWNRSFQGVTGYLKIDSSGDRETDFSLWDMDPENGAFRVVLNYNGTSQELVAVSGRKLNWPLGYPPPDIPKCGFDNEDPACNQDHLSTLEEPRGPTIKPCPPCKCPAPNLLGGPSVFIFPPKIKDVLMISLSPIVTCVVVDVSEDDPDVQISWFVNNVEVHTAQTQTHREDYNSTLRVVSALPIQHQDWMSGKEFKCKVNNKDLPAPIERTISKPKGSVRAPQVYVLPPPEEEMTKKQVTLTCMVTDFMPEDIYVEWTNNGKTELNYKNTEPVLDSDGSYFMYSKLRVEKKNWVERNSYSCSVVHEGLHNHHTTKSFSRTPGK
Procedure, shortened: as §1

[4] = molecular target: mouse NPR1 extracellular domain expressed with a C-terminal myc-myc-hexahistidine (mNPR1-MMH) (mouse, UniProt P18293 29-469); test: SPR, mAb captured, 25 C
Procedure, shortened: as §1

[5] = molecular target: T4, mouse NPR1 extracellular domain expressed with a C-terminal mouse IgG2a (mNPR1-mFc) (mouse); test: SPR, Tables 21 to 26
T4 chain: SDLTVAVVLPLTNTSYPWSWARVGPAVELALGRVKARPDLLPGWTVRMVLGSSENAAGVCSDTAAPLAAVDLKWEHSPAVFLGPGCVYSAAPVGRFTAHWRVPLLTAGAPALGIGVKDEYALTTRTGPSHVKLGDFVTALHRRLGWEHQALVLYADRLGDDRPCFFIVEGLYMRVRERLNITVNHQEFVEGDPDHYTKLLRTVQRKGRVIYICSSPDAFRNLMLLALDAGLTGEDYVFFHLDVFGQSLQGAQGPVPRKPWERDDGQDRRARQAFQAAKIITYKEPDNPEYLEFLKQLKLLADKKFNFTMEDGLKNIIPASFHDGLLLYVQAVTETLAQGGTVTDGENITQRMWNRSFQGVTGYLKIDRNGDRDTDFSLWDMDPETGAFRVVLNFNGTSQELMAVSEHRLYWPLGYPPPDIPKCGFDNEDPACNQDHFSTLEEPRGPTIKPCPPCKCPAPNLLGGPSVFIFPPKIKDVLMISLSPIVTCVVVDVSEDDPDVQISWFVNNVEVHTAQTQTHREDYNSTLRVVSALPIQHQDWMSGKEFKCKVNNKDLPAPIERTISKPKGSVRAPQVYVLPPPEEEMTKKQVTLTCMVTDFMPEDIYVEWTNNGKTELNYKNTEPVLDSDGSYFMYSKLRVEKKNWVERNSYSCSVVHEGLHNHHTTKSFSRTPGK
Procedure, shortened: as §1

T2 sequence (P16066 other isoform, or with tags, fused parts or gaps): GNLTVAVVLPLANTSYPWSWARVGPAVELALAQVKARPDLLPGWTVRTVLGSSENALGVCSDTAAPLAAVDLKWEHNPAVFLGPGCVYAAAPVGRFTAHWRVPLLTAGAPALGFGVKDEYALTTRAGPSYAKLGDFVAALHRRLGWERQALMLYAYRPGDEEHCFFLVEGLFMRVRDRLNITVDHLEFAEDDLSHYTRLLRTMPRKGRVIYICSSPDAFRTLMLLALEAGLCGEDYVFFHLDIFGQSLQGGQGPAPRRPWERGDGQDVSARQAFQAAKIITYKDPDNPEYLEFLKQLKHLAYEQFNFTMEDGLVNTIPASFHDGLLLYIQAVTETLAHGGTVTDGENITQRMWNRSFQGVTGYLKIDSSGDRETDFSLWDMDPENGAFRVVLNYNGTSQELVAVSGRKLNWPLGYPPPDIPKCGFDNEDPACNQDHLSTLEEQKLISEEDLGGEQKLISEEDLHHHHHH

B1: mAb22033 (antibody, V domains shown)
VH: QVQLVQSGAEVKKPGASVTVSCKASGYTFTDYYMHWVRQAPGQGLEWMGWIKPNSGGTNSAQRFQGRITMTWDTSISTAYMELSRLRSDDTAVYYCSRGGPVMNYYYYYGMDVWGQGTTVTVSS
VL: NIQMTQSPSSLSASVGDRVTITCRASQSIDSYLNWYQQKPGKAPKLLIYVASSLQSGVPSRFSGSGSGKDFTLTISSLQPEDFATYYCQQSYSIPTFGQGTRLEIK
- 100 nM Ag Bound (RU) [1]: 79 RU
- Kd [1]: 16.2 nM
- koff [1]: 0.000291 s⁻¹
- kon [1]: 17900 M⁻¹ s⁻¹
- t½ [1]: 0.66 h
- 100 nM Ag Bound (RU) [2]: 30 RU
- Kd [2]: 47.5 nM
- koff [2]: 0.000406 s⁻¹
- kon [2]: 8550 M⁻¹ s⁻¹
- t½ [2]: 0.473 h
- 100 nM Ag Bound (RU) [3]: 56 RU
- Kd [3]: 1.03 nM
- koff [3]: 6.38e-05 s⁻¹
- kon [3]: 61800 M⁻¹ s⁻¹
- t½ [3]: 3.02 h
- 100 nM Ag Bound (RU) [4]: 0 RU
- binding result [4]: no binding (tested: 100 nM)
- binding result [5]: no binding

B2: mAb22035 (antibody, V domains shown)
VH: EVQLVESGGGLVQPGRSLRLSCAASGFTFDDYAMHWVRQAPGKGLEWVSGISWNSGTIGYADSVKGRFTMSRDNAKNSLYLQMNSLRPEDTALYYCAKDMGVSLALWGAFDIWGQGTMVTVSS
VL: DIQMTQSPSSLSASVGDKVTITCRASQNIRTYLNWYQQKPGKAPKVLISTASSLQSGVPSRFSGSGSGTDFTLTISSLQPEDFAVFYCQQSFGIPRTFGQGTKVEIK
- 100 nM Ag Bound (RU) [1]: 245 RU
- Kd [1]: 0.336 nM
- koff [1]: 0.000143 s⁻¹
- kon [1]: 426000 M⁻¹ s⁻¹
- t½ [1]: 1.35 h
- 100 nM Ag Bound (RU) [2]: 210 RU
- Kd [2]: 0.738 nM
- koff [2]: 0.00015 s⁻¹
- kon [2]: 203000 M⁻¹ s⁻¹
- t½ [2]: 1.29 h
- 100 nM Ag Bound (RU) [3]: 198 RU
- Kd [3]: 0.365 nM
- koff [3]: 8.2e-05 s⁻¹
- kon [3]: 225000 M⁻¹ s⁻¹
- t½ [3]: 2.35 h
- 100 nM Ag Bound (RU) [4]: 0 RU
- binding result [4]: no binding (tested: 100 nM)
- binding result [5]: no binding
